Assay results taken from publication PMC3504746.

Biological target: skeletal muscle ryanodine receptor (RyR1) purified from sheep skeletal muscle, homotetramer (sheep (endogenous in skeletal muscle))
Test: negative-stain TEM

stoichiometry N: 4
Substance: skeletal muscle ryanodine receptor (RyR1) purified from sheep skeletal muscle, homotetramer
